This note sets out measurements from publication PMC4555817.

The test addresses GST-tagged full-length cortactin (UniProt Q60598). The test is described as follows: pull-down.

For orientation: Ki means a dissociation constant, usually derived from enzyme kinetics or from competition with a known ligand. A lower Ki goes with a stronger hold on the target.

Sequence of UniProt Q60598 (Q60598 whole entry): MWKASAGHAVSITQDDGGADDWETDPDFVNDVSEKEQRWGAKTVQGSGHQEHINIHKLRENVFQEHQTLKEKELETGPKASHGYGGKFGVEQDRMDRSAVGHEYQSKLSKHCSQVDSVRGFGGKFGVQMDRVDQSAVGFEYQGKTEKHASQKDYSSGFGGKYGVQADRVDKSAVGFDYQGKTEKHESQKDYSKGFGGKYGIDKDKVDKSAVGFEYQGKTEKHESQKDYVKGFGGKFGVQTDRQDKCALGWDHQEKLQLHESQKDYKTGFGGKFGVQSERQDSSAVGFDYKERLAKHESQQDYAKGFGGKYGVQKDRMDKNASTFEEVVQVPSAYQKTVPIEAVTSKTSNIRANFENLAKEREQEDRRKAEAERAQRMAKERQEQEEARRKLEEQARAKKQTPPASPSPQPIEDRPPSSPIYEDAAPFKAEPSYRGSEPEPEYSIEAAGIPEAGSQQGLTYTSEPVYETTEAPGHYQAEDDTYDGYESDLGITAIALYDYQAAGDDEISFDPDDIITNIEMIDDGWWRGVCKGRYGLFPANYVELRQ

As for “actin filaments (from UniProt P68139 1-377) (natural protein)”, the Ki is 461 nM.
